From patent US20140087995A1 (published 2014)
Numbered stars: 1 amine (or outer) side, 2 acyl side, 3 side chain; on linkers, the order of the positions; unused ones are H or OH. Bridge positions count the residues as written; N and C are the ends. Side chains are listed from the residue outwards. Ends that are not written are not given here. * marks the point of attachment. C20 diacid = O=C(O)CCCCCCCCCCCCCCCCCCC(=O)*; γGlu = O=C(O)[C@H](CCC(=O)[*:2])N[*:1]

Tests used:
rat calcitonin receptor [1] = target: T1, rat calcitonin receptor (rat, UniProt P32214 25-516); assay: SPA competition with 125I-calcitonin on membranes of BHK tk'ts 13 cells with rat calcitonin receptor (Assay VIII)
T1 construct: whole, on cells; Membranes of transiently transfected BHK tk'ts 13 cells; also called rCTR; rat calcitonin (a) receptor
T1 sequence (looked up): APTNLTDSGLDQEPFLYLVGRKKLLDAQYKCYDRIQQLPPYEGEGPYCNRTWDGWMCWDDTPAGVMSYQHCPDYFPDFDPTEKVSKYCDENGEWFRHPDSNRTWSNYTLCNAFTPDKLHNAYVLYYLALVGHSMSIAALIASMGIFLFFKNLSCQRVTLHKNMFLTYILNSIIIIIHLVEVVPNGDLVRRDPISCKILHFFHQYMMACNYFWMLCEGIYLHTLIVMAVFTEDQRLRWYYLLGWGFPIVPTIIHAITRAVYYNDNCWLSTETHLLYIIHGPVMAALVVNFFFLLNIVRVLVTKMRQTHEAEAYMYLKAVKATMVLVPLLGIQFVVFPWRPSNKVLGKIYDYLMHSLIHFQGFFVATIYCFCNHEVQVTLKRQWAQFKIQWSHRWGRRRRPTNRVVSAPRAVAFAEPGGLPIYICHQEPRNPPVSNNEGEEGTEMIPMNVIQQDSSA

[2] = target: T2, human calcitonin receptor (human, UniProt P30988 25-474); assay: ratio of IC50 on human calcitonin receptor to IC50 on human amylin receptor (reference m42), SPA competition
T2 construct: whole, on cells; Membranes of stably transfected cells; also called hCTR; hCT
T2 sequence (looked up): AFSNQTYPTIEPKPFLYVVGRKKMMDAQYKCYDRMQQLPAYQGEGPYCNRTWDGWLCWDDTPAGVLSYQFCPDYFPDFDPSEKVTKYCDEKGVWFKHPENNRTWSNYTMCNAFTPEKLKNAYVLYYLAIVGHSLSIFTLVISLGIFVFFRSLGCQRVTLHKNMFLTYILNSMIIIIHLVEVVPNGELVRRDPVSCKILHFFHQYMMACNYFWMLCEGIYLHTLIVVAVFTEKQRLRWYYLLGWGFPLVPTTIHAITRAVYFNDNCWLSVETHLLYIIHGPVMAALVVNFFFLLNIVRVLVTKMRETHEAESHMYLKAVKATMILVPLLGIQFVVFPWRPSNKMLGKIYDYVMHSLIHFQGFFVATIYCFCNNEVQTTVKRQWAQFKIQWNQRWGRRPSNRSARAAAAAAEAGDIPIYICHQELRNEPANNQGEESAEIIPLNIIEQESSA
In short: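 Competition binding by SPA with cell membranes (35 ng/μL) and SPA beads in 50 mM Hepes pH 7.4 with 1 mM CaCl2, 5 mM MgCl2, 0.1% OA and 0.02% Tween20. Incubated 120 min at 25 °C with shaking, then counted.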

[3] = target: T3, rat amylin receptor (rat calcitonin receptor + rat RAMP 3) (rat, UniProt P32214 25-516; Q9JJ73 23-147); assay: SPA competition with 125I-rat amylin on membranes of BHK tk'ts 13 cells with rat calcitonin receptor + rat RAMP3 (Assay VI)
T3 construct: whole, on cells; Membranes of transiently transfected BHK tk'ts 13 cells; also called rAmylin-R; rat amylin 3(a) receptor
T3 sequence (looked up) 1: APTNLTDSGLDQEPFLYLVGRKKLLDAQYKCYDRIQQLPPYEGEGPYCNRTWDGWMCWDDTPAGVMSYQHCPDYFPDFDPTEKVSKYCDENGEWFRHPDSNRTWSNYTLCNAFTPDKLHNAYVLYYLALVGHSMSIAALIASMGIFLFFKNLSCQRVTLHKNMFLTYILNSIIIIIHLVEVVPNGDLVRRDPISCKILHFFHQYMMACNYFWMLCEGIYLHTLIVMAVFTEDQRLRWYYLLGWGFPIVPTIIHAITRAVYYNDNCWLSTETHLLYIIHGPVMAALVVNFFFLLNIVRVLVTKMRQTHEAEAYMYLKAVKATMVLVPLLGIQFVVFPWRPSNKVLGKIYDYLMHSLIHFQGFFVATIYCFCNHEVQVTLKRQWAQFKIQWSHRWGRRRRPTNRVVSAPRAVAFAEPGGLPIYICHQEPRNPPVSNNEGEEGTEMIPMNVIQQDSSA
T3 sequence (looked up) 2: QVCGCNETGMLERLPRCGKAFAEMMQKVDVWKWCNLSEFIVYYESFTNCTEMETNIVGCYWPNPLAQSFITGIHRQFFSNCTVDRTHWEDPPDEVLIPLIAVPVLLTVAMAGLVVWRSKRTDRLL

rat calcitonin receptor [4] = target: T1, rat calcitonin receptor; assay: ratio of IC50 on rat calcitonin receptor to IC50 on rat amylin receptor (reference m40)

IC50 (rat calcitonin receptor [1])	Ratio hCT/hAmylin binding [2]	IC50 [3]	Ratio rCT/rAmylin binding (rat calcitonin receptor [4])	Binder
10.4 nM	13.3	0.164 nM	63.2	K([γGlu-C20 diacid])CNTATCATQRLAEFLRHSSPNFGAIPSSTNVGPETY-NH2 (disulfide 2-7; N-terminus assumed; SMILES CC[C@H](C)[C@H](NC(=O)[C@H](C)NC(=O)CNC(=O)[C@H](Cc1ccccc1)NC(=O)[C@H](CC(N)=O)NC(=O)[C@@H]1CCCN1C(=O)[C@H](CO)NC(=O)[C@H](CO)NC(=O)[C@H](Cc1c[nH]cn1)NC(=O)[C@H](CCCNC(=N)N)NC(=O)[C@H](CC(C)C)NC(=O)[C@H](Cc1ccccc1)NC(=O)[C@H](CCC(=O)O)NC(=O)[C@H](C)NC(=O)[C@H](CC(C)C)NC(=O)[C@H](CCCNC(=N)N)NC(=O)[C@H](CCC(N)=O)NC(=O)[C@@H](NC(=O)[C@H](C)NC(=O)[C@@H]1CSSC[C@H](NC(=O)[C@@H](N)CCCCNC(=O)CC[C@H](NC(=O)CCCCCCCCCCCCCCCCCCC(=O)O)C(=O)O)C(=O)N[C@@H](CC(N)=O)C(=O)N[C@@H]([C@@H](C)O)C(=O)N[C@@H](C)C(=O)N[C@@H]([C@@H](C)O)C(=O)N1)[C@@H](C)O)C(=O)N1CCC[C@H]1C(=O)N[C@@H](CO)C(=O)N[C@@H](CO)C(=O)N[C@H](C(=O)N[C@@H](CC(N)=O)C(=O)N[C@H](C(=O)NCC(=O)N1CCC[C@H]1C(=O)N[C@@H](CCC(=O)O)C(=O)N[C@H](C(=O)N[C@@H](Cc1ccc(O)cc1)C(N)=O)[C@@H](C)O)C(C)C)[C@@H](C)O, Synthetic acylated analogue of human amylin)
56.3 nM	26.5	0.436 nM	129	{C20 diacid-γGlu}-GRCNTATCATQRLAAFLRHSSPNFGAIPSSTNVGPNTY-NH2 (disulfide 3-8, Synthetic acylated analogue of human amylin, extended by Gly at position -1)
65.9 nM	36.2	0.674 nM	97.7	{C20 diacid-γGlu}-GRCNTATCATQRLAHFLRHSSPNFGAIPSSTNVGPNTY-NH2 (disulfide 3-8; SMILES CC[C@H](C)[C@H](NC(=O)[C@H](C)NC(=O)CNC(=O)[C@H](Cc1ccccc1)NC(=O)[C@H](CC(N)=O)NC(=O)[C@@H]1CCCN1C(=O)[C@H](CO)NC(=O)[C@H](CO)NC(=O)[C@H](Cc1c[nH]cn1)NC(=O)[C@H](CCCNC(=N)N)NC(=O)[C@H](CC(C)C)NC(=O)[C@H](Cc1ccccc1)NC(=O)[C@H](Cc1c[nH]cn1)NC(=O)[C@H](C)NC(=O)[C@H](CC(C)C)NC(=O)[C@H](CCCNC(=N)N)NC(=O)[C@H](CCC(N)=O)NC(=O)[C@@H](NC(=O)[C@H](C)NC(=O)[C@@H]1CSSC[C@H](NC(=O)[C@H](CCCNC(=N)N)NC(=O)CNC(=O)CC[C@H](NC(=O)CCCCCCCCCCCCCCCCCCC(=O)O)C(=O)O)C(=O)N[C@@H](CC(N)=O)C(=O)N[C@@H]([C@@H](C)O)C(=O)N[C@@H](C)C(=O)N[C@@H]([C@@H](C)O)C(=O)N1)[C@@H](C)O)C(=O)N1CCC[C@H]1C(=O)N[C@@H](CO)C(=O)N[C@@H](CO)C(=O)N[C@H](C(=O)N[C@@H](CC(N)=O)C(=O)N[C@H](C(=O)NCC(=O)N1CCC[C@H]1C(=O)N[C@@H](CC(N)=O)C(=O)N[C@H](C(=O)N[C@@H](Cc1ccc(O)cc1)C(N)=O)[C@@H](C)O)C(C)C)[C@@H](C)O, Synthetic acylated analogue of human amylin, extended by Gly at position -1)
216 nM	100	2.7 nM	79.8	{C20 diacid-γGlu}-GRCNTATCATQRLAHFLRHSSPNFGAIPSSTNVGSNTY-NH2 (disulfide 3-8; SMILES CC[C@H](C)[C@H](NC(=O)[C@H](C)NC(=O)CNC(=O)[C@H](Cc1ccccc1)NC(=O)[C@H](CC(N)=O)NC(=O)[C@@H]1CCCN1C(=O)[C@H](CO)NC(=O)[C@H](CO)NC(=O)[C@H](Cc1c[nH]cn1)NC(=O)[C@H](CCCNC(=N)N)NC(=O)[C@H](CC(C)C)NC(=O)[C@H](Cc1ccccc1)NC(=O)[C@H](Cc1c[nH]cn1)NC(=O)[C@H](C)NC(=O)[C@H](CC(C)C)NC(=O)[C@H](CCCNC(=N)N)NC(=O)[C@H](CCC(N)=O)NC(=O)[C@@H](NC(=O)[C@H](C)NC(=O)[C@@H]1CSSC[C@H](NC(=O)[C@H](CCCNC(=N)N)NC(=O)CNC(=O)CC[C@H](NC(=O)CCCCCCCCCCCCCCCCCCC(=O)O)C(=O)O)C(=O)N[C@@H](CC(N)=O)C(=O)N[C@@H]([C@@H](C)O)C(=O)N[C@@H](C)C(=O)N[C@@H]([C@@H](C)O)C(=O)N1)[C@@H](C)O)C(=O)N1CCC[C@H]1C(=O)N[C@@H](CO)C(=O)N[C@@H](CO)C(=O)N[C@H](C(=O)N[C@@H](CC(N)=O)C(=O)N[C@H](C(=O)NCC(=O)N[C@@H](CO)C(=O)N[C@@H](CC(N)=O)C(=O)N[C@H](C(=O)N[C@@H](Cc1ccc(O)cc1)C(N)=O)[C@@H](C)O)C(C)C)[C@@H](C)O, Synthetic acylated analogue of human amylin, extended by Gly at position -1; also called compound 99)
